According to the supplement of paper PMC5998384:

Columns and labels:
HeLa Kyoto [1] = assay: melting temperature (median over replicates), in situ; higher = more thermally stable
HeLa Kyoto [2] = assay: solubility in G1/S (NP-40 vs SDS abundance) (log2 ratio); higher = more soluble; details: cell cycle stage: G1/S
HeLa Kyoto [3] = assay: solubility change mitosis vs G1/S (difference of NP-40 vs SDS log2 ratios) (log2 ratio difference); higher = more soluble in mitosis
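For melting temperature (median over replicates), in situ in this document: HeLa Kyoto cells synchronized by double thymidine or nocodazole block, proteins quantified by TMT10plex mass spectrometry, three independent biological replicates.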
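For solubility change mitosis vs G1/S (difference of NP-40 vs SDS log2 ratios) in this document: synchronized HeLa Kyoto cells (double thymidine block for G1/S, nocodazole release for mitosis), protein amounts in NP-40 versus SDS lysates quantified by mass spectrometry, three biological replicates.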
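For solubility in G1/S (NP-40 vs SDS abundance) in this document: HeLa Kyoto cells arrested at G1/S by double thymidine block, proteins quantified by TMT10plex mass spectrometry in mild NP-40 versus SDS extracts, three biological replicates.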

Chain of PLSCR3 (chain, as listed by the source): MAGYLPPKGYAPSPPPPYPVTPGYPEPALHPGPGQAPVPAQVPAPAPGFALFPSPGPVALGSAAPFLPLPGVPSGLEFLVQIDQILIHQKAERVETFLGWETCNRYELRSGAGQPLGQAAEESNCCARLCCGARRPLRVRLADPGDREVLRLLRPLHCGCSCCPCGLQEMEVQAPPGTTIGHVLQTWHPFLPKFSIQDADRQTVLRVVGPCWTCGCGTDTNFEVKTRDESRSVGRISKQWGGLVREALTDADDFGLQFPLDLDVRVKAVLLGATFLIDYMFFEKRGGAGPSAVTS

Row | Substance | melting temperature (HeLa Kyoto [1]; cell cycle stage: G1/S) [°C] | melting temperature (HeLa Kyoto [1]; cell cycle stage: mitosis) [°C] | solubility in G1/S (log2) (HeLa Kyoto [2]) | solubility change mitosis (log2) (HeLa Kyoto [3])
1 | MSRQTTSVGSSCLDLWREKNDRLVRQAKVAQNSGLTLRRQQLAQDALEGLRGLLHSLQGLPAAVPVLPLELTVTCNFIILRASLAQGFTEDQAQDIQRSLERVLETQEQQGPRLEQGLRELWDSVLRASCLLPELLSALHRLVGLQAALWLSADRLGDLALLLETLNGSQSGASKDLLLLLKTWSPPAEELDAPLTLQDAQGLKDVLLTAFAYRQGLQELITGNPDKALSSLHEAASGLCPRPVLVQVYTALGSCHRKMGNPQRALLYLVAALKEGSAWGPPLLEASRLYQQLGDTTAELESLELLVEALNVPCSSKAPQFLIEVELLLPPPDLASPLHCGTQSQTKHILASRCLQTGRAGDAAEHYLDLLALLLDSSEPRFSPPPSPPGPCMPEVFLEAAVALIQAGRAQDALTLCEELLSRTSSLLPKMSRLWEDARKGTKELPYCPLWVSATHLLQGQAWVQLGAQKVAISEFSRCLELLFRATPEEKEQGAAFNCEQGCKSDAALQQLRAAALISRGLEWVASGQDTKALQDFLLSVQMCPGNRDTYFHLLQTLKRLDRRDEATALWWRLEAQTKGSHEDALWSLPLYLESYLSWIRPSDRDAFLEEFRTSLPKSCDL [FANCG] | 49.9 | 48 | 0.138 | -0.0579
2 | KIAA1217 | 49.8 | 50.7 | 0.0766 | 0.0131
3 | MAQKRPACTLKPECVQQLLVCSQEAKKSAYCPYSHFPVGAALLTQEGRIFKGCNIENACYPLGICAERTAIQKAVSEGYKDFRAIAIASDMQDDFISPCGACRQVMREFGTNWPVYMTKPDGTYIVMTVQELLPSSFGPEDLQKTQ [CDA] | 54.4 | 54 | 0.37 | -0.0534
4 | MAGVSYAAPWWVSLLHRLPHFDLSWEATSSQFRPEDTDYQQALLLLGAAALACLALDLLFLLFYSFWLCCRRRKSEEHLDADCCCTAWCVIIATLVCSAGIAVGFYGNGETSDGIHRATYSLRHANRTVAGVQDRVWDTAVGLNHTAEPSLQTLERQLAGRPEPLRAVQRLQGLLETLLGYTAAIPFWRNTAVSLEVLAEQVDLYDWYRWLGYLGLLLLDVIICLLVLVGLIRSSKGILVGVCLLGVLALVISWGALGLELAVSVGSSDFCVDPDAYVTKMVEEYSVLSGDILQYYLACSPRAANPFQQKLSGSHKALVEMQDVVAELLRTVPWEQPATKDPLLRVQEVLNGTEVNLQHLTALVDCRSLHLDYVQALTGFCYDGVEGLIYLALFSFVTALMFSSIVCSVPHTWQQKRGPDEDGEEEAAPGPRQAHDSLYRVHMPSLYSCGSSYGSETSIPAAAHTVSNAPVTEYMSQNANFQNPRCENTPLIGRESPPPSYTSSMRAKYLATSQPRPDSSGSH [TTYH3] | 55.3 | 56.1 | 0.256 | -0.146
5 | MSRLIVKNLPNGMKEERFRQLFAAFGTLTDCSLKFTKDGKFRKFGFIGFKSEEEAQKAQKHFNKSFIDTSRITVEFCKSFGDPAKPRAWSKHAQKPSQPKQPPKDSTTPEIKKDEKKKKVAGQLEKLKEDTEFQEFLSVHQRRAQAATWANDGLDAEPSKGKSKPASDYLNFDSDSGQESEEEGAGEDLEEEASLEPKAAVQKELSDMDYLKSKMVKAGSSSSSEEEESEDEAVHCDEGSEAEEEDSSATPVLQERDSKGAGQEQGMPAGKKRPPEARAETEKPANQKEPTTCHTVKLRGAPFNVTEKNVMEFLAPLKPVAIRIVRNAHGNKTGYIFVDFSNEEEVKQALKCNREYMGGRYIEVFREKNVPTTKGAPKNTTKSWQGRILGENEEEEDLAESGRLFVRNLPYTSTEEDLEKLFSKYGPLSELHYPIDSLTKKPKGFAFITFMFPEHAVKAYSEVDGQVFQGRMLHVLPSTIKKEASEDASALGSSSYKKKKEAQDKANSASSHNWNTLFMGPNAVADAIAQKYNATKSQVFDHETKGSVAVRVALGETQLVQEVRRFLIDNGVSLDSFSQAAAERSKTVILVKNLPAGTLAAQLQETFGHFGSLGRVLLPEGGITAIVEFLEPLEARKAFRHLAYSKFHHVPLYLEWAPVGVFSSTAPQKKKLQDTPSEPMEKDPAEPETVPDGETPEDENPTEEGADNSSAKMEEEEEEEEEEEESLPGCTLFIKNLNFDTTEEKLKEVFSKVGTVKSCSISKKKNKAGVLLSMGFGFVEYRKPEQAQKALKQLQGHVVDGHKLEVRISERATKPAVTLARKKQVPRKQTTSKILVRNIPFQAHSREIRELFSTFGELKTVRLPKKMTGTGTHRGFGFVDFLTKQDAKRAFNALCHSTHLYGRRLVLEWADSEVTLQALRRKTAAHFHEPPKKKRSVVLDEILEQLEGSDSDSEEQTLQL [RBM19] | 48.5 | 51.2 | -1.27 | 0.706
6 | PHLPP1 | 51.7 | 51.2 | 0.00518 | -0.0508
7 | MAAAAAALSGAGTPPAGGGAGGGGAGGGGSPPGGWAVARLEGREFEYLMKKRSVTIGRNSSQGSVDVSMGHSSFISRRHLEIFTPPGGGGHGGAAPELPPAQPRPDAGGDFYLRCLGKNGVFVDGVFQRRGAPPLQLPRVCTFRFPSTNIKITFTALSSEKREKQEASESPVKAVQPHISPLTINIPDTMAHLISPLPSPTGTISAANSCPSSPRGAGSSGYKVGRVMPSDLNLMADNSQPENEKEASGGDSPKDDSKPPYSYAQLIVQAITMAPDKQLTLNGIYTHITKNYPYYRTADKGWQNSIRHNLSLNRYFIKVPRSQEEPGKGSFWRIDPASESKLIEQAFRKRRPRGVPCFRTPLGPLSSRSAPASPNHAGVLSAHSSGAQTPESLSREGSPAPLEPEPGAAQPKLAVIQEARFAQSAPGSPLSSQPVLITVQRQLPQAIKPVTYTVATPVTTSTSQPPVVQTVHVVHQIPAVSVTSVAGLAPANTYTVSGQAVVTPAAVLAPPKAEAQENGDHREVKVKVEPIPAIGHATLGTASRIIQTAQTTPVQTVTIVQQAPLGQHQLPIKTVTQNGTHVASVPTAVHGQVNNAAASPLHMLATHASASASLPTKRHNGDQPEQPELKRIKTEDGEGIVIALSVDTPPAAVREKGVQN [FOXK2] |  | 50.7 | 0.267 | -0.0189
8 | MGWSQDLFRALWRSLSREVKEHVGTDQFGNKYYYIPQYKNWRGQTIREKRIVEAANKKEVDYEAGDIPTEWEAWIRRTRKTPPTMEEILKNEKHREEIKIKSQDFYEKEKLLSKETSEELLPPPVQTQIKGHASAPYFGKEEPSVAPSSTGKTFQPGSWMPRDGKSHNQ [NDUFAF2] | 55.5 | 52.2 | 0.329 | 0.329
9 | MTTTTTFKGVDPNSRNSSRVLRPPGGGSNFSLGFDEPTEQPVRKNKMASNIFGTPEENQASWAKSAGAKSSGGREDLESSGLQRRNSSEASSGDFLDLKGEGDIHENVDTDLPGSLGQSEEKPVPAAPVPSPVAPAPVPSRRNPPGGKSSLVLG [HN1] | 52.1 |  | -0.248 | 0.268
10 | PLSCR3 |  | 56.6 | 0.116 | -0.119
11 | MARLTKRRQADTKAIQHLWAAIEIIRNQKQIANIDRITKYMSRVHGMHPKETTRQLSLAVKDGLIVETLTVGCKGSKAGIEQEGYWLPGDEIDWETENHDWYCFECHLPGEVLICDLCFRVYHSKCLSDEFRLRDSSSPWQCPVCRSIKKKNTNKQEMGTYLRFIVSRMKERAIDLNKKGKDNKHPMYRRLVHSAVDVPTIQEKVNEGKYRSYEEFKADAQLLLHNTVIFYGADSEQADIARMLYKDTCHELDELQLCKNCFYLSNARPDNWFCYPCIPNHELVWAKMKGFGFWPAKVMQKEDNQVDVRFFGHHHQRAWIPSENIQDITVNIHRLHVKRSMGWKKACDELELHQRFLREGRFWKSKNEDRGEEEAESSISSTSNEQLKVTQEPRAKKGRRNQSVEPKKEEPEPETEAVSSSQEIPTMPQPIEKVSVSTQTKKLSASSPRMLHRSTQTTNDGVCQSMCHDKYTKIFNDFKDRMKSDHKRETERVVREALEKLRSEMEEEKRQAVNKAVANMQGEMDRKCKQVKEKCKEEFVEEIKKLATQHKQLISQTKKKQWCYNCEEEAMYHCCWNTSYCSIKCQQEHWHAEHKRTCRRKR [ZMYND11] |  |  | -2.1 | 0.83
12 | PTPN6 |  |  | 0.166 | 0.0101
13 | ALPK2 |  |  | -0.117 | 0.00635
14 | MAGRGSLVSWRAFHGCDSAEELPRVSPRFLRAWHPPPVSARMPTRRWAPGTQCITKCEHTRPKPGELAFRKGDVVTILEACENKSWYRVKHHTSGQEGLLAAGALREREALSADPKLSLMPWFHGKISGQEAVQQLQPPEDGLFLVRESARHPGDYVLCVSFGRDVIHYRVLHRDGHLTIDEAVFFCNLMDMVEHYSKDKGAICTKLVRPKRKHGTKSAEEELARAGWLLNLQHLTLGAQIGEGEFGAVLQGEYLGQKVAVKNIKCDVTAQAFLDETAVMTKMQHENLVRLLGVILHQGLYIVMEHVSKGNLVNFLRTRGRALVNTAQLLQFSLHVAEGMEYLESKKLVHRDLAARNILVSEDLVAKVSDFGLAKAERKGLDSSRLPVKWTAPEALKHGKFTSKSDVWSFGVLLWEVFSYGRAPYPKMSLKEVSEAVEKGYRMEPPEGCPGPVHVLMSSCWEAEPARRPPFRKLAEKLARELRSAGAPASVSGQDADGSTSPRSQEP [MATK] |  |  | -0.238 | 0.257
15 | MFLQYYLNEQGDRVYTLKKFDPMGQQTCSAHPARFSPDDKYSRHRITIKKRFKVLMTQQPRPVL [NOP10] |  |  | -1.06 | 0.778
16 | MSGPCGEKPVLEASPTMSLWEFEDSHSRQGTPRPGQELAAEEASALELQMKVDFFRKLGYSSTEIHSVLQKLGVQADTNTVLGELVKHGTATERERQTSPDPCPQLPLVPRGGGTPKAPNLEPPLPEEEKEGSDLRPVVIDGSNVAMSHGNKEVFSCRGILLAVNWFLERGHTDITVFVPSWRKEQPRPDVPITDQHILRELEKKKILVFTPSRRVGGKRVVCYDDRFIVKLAYESDGIVVSNDTYRDLQGERQEWKRFIEERLLMYSFVNDKFMPPDDPLGRHGPSLDNFLRKKPLTLEHRKQPCPYGRKCTYGIKCRFFHPERPSCPQRSVADELRANALLSPPRAPSKDKNGRRPSPSSQSSSLLTESEQCSLDGKKLGAQASPGSRQEGLTQTYAPSGRSLAPSGGSGSSFGPTDWLPQTLDSLPYVSQDCLDSGIGSLESQMSELWGVRGGGPGEPGPPRAPYTGYSPYGSELPATAAFSAFGRAMGAGHFSVPADYPPAPPAFPPREYWSEPYPLPPPTSVLQEPPVQSPGAGRSPWGRAGSLAKEQASVYTKLCGVFPPHLVEAVMGRFPQLLDPQQLAAEILSYKSQHPSE [ZC3H12A] |  |  | 0.15 | -0.0716
17 | PPP3R1 |  |  | 0.385 | -0.104
18 | MEPKVAELKQKIEDTLCPFGFEVYPFQVAWYNELLPPAFHLPLPGPTLAFLVLSTPAMFDRALKPFLQSCHLRMLTDPVDQCVAYHLGRVRESLPELQIEIIADYEVHPNRRPKILAQTAAHVAGAAYYYQRQDVEADPWGNQRISGVCIHPRFGGWFAIRGVVLLPGIEVPDLPPRKPHDCVPTRADRIALLEGFNFHWRDWTYRDAVTPQERYSEEQKAYFSTPPAQRLALLGLAQPSEKPSSPSPDLPFTTPAPKKPGNPSRARSWLSPRVSPPASPGP [MMACHC] |  |  | 0.0435 | 0.0886
19 | MFQASMRSPNMEPFKQQKVEDFYDIGEELGSGQFAIVKKCREKSTGLEYAAKFIKKRQSRASRRGVSREEIEREVSILRQVLHHNVITLHDVYENRTDVVLILELVSGGELFDFLAQKESLSEEEATSFIKQILDGVNYLHTKKIAHFDLKPENIMLLDKNIPIPHIKLIDFGLAHEIEDGVEFKNIFGTPEFVAPEIVNYEPLGLEADMWSIGVITYILLSGASPFLGDTKQETLANITAVSYDFDEEFFSQTSELAKDFIRKLLVKETRKRLTIQEALRHPWITPVDNQQAMVRRESVVNLENFRKQYVRRRWKLSFSIVSLCNHLTRSLMKKVHLRPDEDLRNCESDTEEDIARRKALHPRRRSSTS [DAPK2] |  |  | 0.203 | -0.115
